Measured values: patent US20150132305A1 (ADHERON THERAPEUTICS, published 2015)
Residue numbers refer to the chain shown, from its start. Names may count otherwise. No end group written: not given here.

T1: recombinant Cad-11 EC1 human IgG1 fusion protein (R&D Systems Cat. No. 1790-CA-050) (human, UniProt P55287 54-617, limits assumed)
T1 construct: bought; also called recombinant human Cad-11 EC1; recombinant human Cad-11 fusion protein; not shown: human IgG1 part
T1 sequence: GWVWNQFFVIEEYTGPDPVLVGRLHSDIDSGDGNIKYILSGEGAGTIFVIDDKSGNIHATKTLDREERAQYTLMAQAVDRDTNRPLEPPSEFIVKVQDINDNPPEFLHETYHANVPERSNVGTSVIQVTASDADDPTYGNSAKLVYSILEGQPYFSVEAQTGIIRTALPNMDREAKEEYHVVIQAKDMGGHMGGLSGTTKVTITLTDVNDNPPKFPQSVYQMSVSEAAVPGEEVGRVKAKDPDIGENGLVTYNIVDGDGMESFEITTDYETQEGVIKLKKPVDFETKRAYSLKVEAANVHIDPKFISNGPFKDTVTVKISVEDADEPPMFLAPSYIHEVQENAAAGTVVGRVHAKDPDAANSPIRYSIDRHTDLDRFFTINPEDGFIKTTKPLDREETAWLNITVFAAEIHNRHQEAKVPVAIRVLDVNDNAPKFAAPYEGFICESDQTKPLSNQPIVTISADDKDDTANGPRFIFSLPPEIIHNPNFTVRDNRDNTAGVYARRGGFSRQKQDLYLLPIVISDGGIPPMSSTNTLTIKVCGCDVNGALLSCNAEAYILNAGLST

B1: SDP151 humanized anti-Cad-11 EC1 antibody (Vκ3/VH5) (antibody, IgG4, V domains shown)
VH: EVQLVQSGAEVKKPGASVKVSCKASGYSFTGYFMNWVRQAPGQGLEWIGRINPYTGDTFYNQKFKGRVTITVDKSTSTAYMELSSLRSEDTAVYYCGRLGSRYWYFDVWGQGTTVTVSS
VL: DVVMTQTPLSSPVTLGQPASISCRSSQSIIHSNGNTYLEWYLQKPGQSPQLLIYKVSNRFSGVPDRFSGSGSGTDFTLKISRVEAEDVGVYYCFQGSHVPWTFGQGTKLEIK
notes: humanized IgG4 (S241P), kappa
B2: SDP131 humanized anti-Cad-11 EC1 antibody (Vκ3/VH3) (antibody, IgG4, V domains shown)
VH: B1 VH with V20I, V68A, I70L
VL: B1 VL
notes: humanized IgG4 (S241P), kappa
B3: SDP111 humanized anti-Cad-11 EC1 antibody (Vκ3/VH1) (antibody, IgG4, V domains shown)
VH: EVQLVQSGPELKKPGASVKISCKASGYSFTGYFMNWVKQAHGQGLEWIGRINPYTGDTFYNQKFKGRATLTVDKSSSTAYMELVSLSSEDSAVYYCGRLGSRYWYFDVWGQGTTVTVSS
VL: B1 VL
notes: humanized IgG4 (S241P), kappa
B4: SDP121 humanized anti-Cad-11 EC1 antibody (Vκ3/VH2) (antibody, IgG4, V domains shown)
VH: B1 VH with V20I, R38K, V68A, I70L
VL: B1 VL
notes: humanized IgG4 (S241P), kappa
B5: SDP141 humanized anti-Cad-11 EC1 antibody (Vκ3/VH4) (antibody, IgG4, V domains shown)
VH: B1 VH with V68A
VL: B1 VL
notes: humanized IgG4 (S241P), kappa
B6: SDP041 humanized anti-Cad-11 EC1 antibody (Vκ1/VH4) (antibody, IgG4, V domains shown)
VH: B1 VH with V68A
VL: B1 VL with V3L, S68T
notes: humanized IgG4 (S241P), kappa
B7: SDP021 humanized anti-Cad-11 EC1 antibody (Vκ1/VH2) (antibody, IgG4, V domains shown)
VH: B1 VH with V20I, R38K, V68A, I70L
VL: B1 VL with V3L, S68T
notes: humanized IgG4 (S241P), kappa
B8: SDP011 humanized anti-Cad-11 EC1 antibody (Vκ1/VH1) (antibody, IgG4, V domains shown)
VH: B3 VH
VL: B1 VL with V3L, S68T
notes: humanized IgG4 (S241P), kappa
B9: SDP031 humanized anti-Cad-11 EC1 antibody (Vκ1/VH3) (antibody, IgG4, V domains shown)
VH: B1 VH with V20I, V68A, I70L
VL: B1 VL with V3L, S68T
notes: humanized IgG4 (S241P), kappa
B10: SDP071 humanized anti-Cad-11 EC1 antibody (Vκ2/VH2) (antibody, IgG4, V domains shown)
VH: B1 VH with V20I, R38K, V68A, I70L
VL: B1 VL with V3L
notes: humanized IgG4 (S241P), kappa
B11: SDP061 humanized anti-Cad-11 EC1 antibody (Vκ2/VH1) (antibody, IgG4, V domains shown)
VH: B3 VH
VL: B1 VL with V3L
notes: humanized IgG4 (S241P), kappa
B12: SDP081 humanized anti-Cad-11 EC1 antibody (Vκ2/VH3) (antibody, IgG4, V domains shown)
VH: B1 VH with V20I, V68A, I70L
VL: B1 VL with V3L
notes: humanized IgG4 (S241P), kappa
B13: SDP091 humanized anti-Cad-11 EC1 antibody (Vκ2/VH4) (antibody, IgG4, V domains shown)
VH: B1 VH with V68A
VL: B1 VL with V3L
notes: humanized IgG4 (S241P), kappa
B14: SDP101 humanized anti-Cad-11 EC1 antibody (Vκ2/VH5) (antibody, IgG4, V domains shown)
VH: B1 VH
VL: B1 VL with V3L
notes: humanized IgG4 (S241P), kappa
B15: Cad-9 37-mer peptide linked to BSA (peptide, UniProt Q9ULB4 54-90, looked up)
peptide: GWMWNQFFLLEEYTGTDTQYVGKLHTDQDKGDGNLKY
modifications: also: linked to BSA
notes: also called Cad-9 antigen; Cad-9 peptide
B16: Cad-7 37-mer peptide linked to BSA (peptide, UniProt Q9ULB5 48-84, looked up)
peptide: SWVWNQFFVLEEYMGSDPLYVGKLHSDVDKGDGSIKY
modifications: also: linked to BSA
notes: also called Cad-7 antigen; Cad-7 peptide

Molecular target: T1, recombinant Cad-11 EC1 human IgG1 …
Experiment: competition ELISA: antibody dilution series premixed with 0.1 µg/ml biotinylated SYN0012/H1M1, plate coated with recombinant human Cad-11 EC1 fusion protein, streptavidin-HRP, OD450
Method: (§1) The binding of the purified humanized composite variant antibodies (SDP011 to SDP151) to a recombinant Cad-11 EC1 human IgG1 fusion protein was assessed in a competition binding ELISA. A dilution series from 5 μg/ml to 0.0022 μg/ml of the humanized or control (SYN0012/H1M1) antibodies was premixed with a constant concentration of biotinylated murine anti-Cad-11 antibody, SYN0012/H1M1 (0.1 μg/ml, final concentration), before incubating for 1 hour at room temperature on a NUNC-IIMMUNO™ MAXISORP™ 96 well flat bottom microtitre plate (Fisher Cat. No. DIS-971-030J) pre-coated with 0.25 μg/ml recombinant human Cad-11 EC1 (R&D Systems Cat. No. 1790-CA-050) diluted in PBS. The binding of the biotinylated mAb was detected with streptavidin-HRP (Sigma Cat. No. 55512) and tetramethylbenzidine (TMB) substrate (Invitrogen Cat. No. 00-2023).
(§2) All of the humanized anti-Cad-11 antibodies efficiently competed with SYN0012 for binding to the Cad-11 fusion protein (FIGS. 38A to C). […] The curves were used to calculate IC50 values for each antibody and these were normalized to the IC50 of SYN0012, which was included on each ELISA plate so that comparisons between plates could be made (Table 3). The expression levels of each cell line and the calculated isoelectric point (pI) of each antibody are also shown (Table 3).

Row | IC50 (read off the curve) [µg/mL] | Binder
1 | ~0.2 | B1
2 | ~0.2 | B2
3 | ~0.2 | B3
4 | ~0.2 | B4
5 | ~0.2 | B5

Molecular target: T1, recombinant Cad-11 EC1 human IgG1 …
Experiment: competition ELISA on coated recombinant human Cad-11 EC1 fusion protein against biotinylated SYN0012 (0.1 µg/ml)
Method: as §1, §2

Row | IC50 (read off the curve) [µg/mL] | Binder
6 | ~0.1 | B6
7 | ~0.1 | B7
8 | ~0.2 | B8
9 | ~0.2 | B9

Molecular target: B15
Experiment: ELISA, BSA-coupled 37-mer cadherin peptide coated at 500 ng/ml, A450
Method: REACTI-BIND™ plates (ThermoScientific) were coated with 500 ng/ml of the BSA coupled cadherin 37-mer peptide (NE peptide) corresponding to Cadherins-7, -8, -9, -11, -18, -20, and -24 in 0.05% TWEEN® detergent (EMD, product code 9480) in PBS (pH 7.2) (Gibco(Invitrogen), #20012) at 100 μl volume/well for overnight at 4° C. The peptide containing solution was removed from the well and the plate blocked with a 2% bovine serum albumin (BSA) in PBS, 200 μl volume/well, for 2 h at 22° C. The plate was then washed twice with 200 μl/well of PBS-TWEEN® detergent 0.05% at 22° C. and blotted dry. A dilution series from 5 μg/ml to 8 ng/ml in a volume of 100 μl/well of each the humanized anti-Cad-11 antibodies were incubated in the petide coated wells and incubated at 22° C. for 1 hr. Antibody solution was removed from the wells and the plate washed twice with 200 μl/well of 0.05% TWEEN® detergent-PBS at 22° C. and blotted dry. The goat-anti mouse IgG (Pierce #31432) was added to each well to plate at a 1:1000 dilution, 100 μl/well and incubate at 22° C. for 30 min. The secondary antibody solution was removed and the plate washed twice with 200 μl/well of 0.05% TWEEN® detergent-PBS at 22° C. and blotted dry. The reaction was developed by adding 100 μl/well tetramethylbenzidine (TMB) reagent IgG (Pierce #34022, 1 step Turbo TMB-ELISA) to plate and developed at 22° C. for 5 min.

Row | binding result | Binder
10 | no binding (tested: 5000 ng/ml) | B10
11 | no binding (tested: 5000 ng/ml) | B11

Molecular target: T1, recombinant Cad-11 EC1 human IgG1 …
Experiment: competition ELISA against biotinylated SYN0012/H1M1 (competitor) on coated fusion protein; text says values are normalised to the IC50 of SYN0012
Method: as §1, §2
The relative IC50 was calculated by dividing the value for the test antibody by that of SYN0012. Antibody expression levels given are for static cultures in T flasks. PI are calculated.

Row | IC50 [µg/mL] | Binder
12 | 0.42 | B12
13 | 0.57 | B13
14 | 0.53 | B14
15 | 0.33 | B10
16 | 0.47 | B11
17 | 0.65 | B6
18 | 0.67 | B7
19 | 0.72 | B1
20 | 0.55 | B2
21 | 0.68 | B3
22 | 0.91 | B8
23 | 0.84 | B9
24 | 0.52 | B4
25 | 0.61 | B5

Molecular target: T2, SDP051 humanized anti-Cad-11 EC1 antibody (Vκ1/VH5)
T2 construct: humanized IgG4 (S241P), kappa
Experiment: flow cytometry blocking assay: peptide titrated with SDP 051 at 0.5 ug/ml on Cad-11 expressing 431D cells; blocked: binding of SDP051 to cell-surface Cad-11; MFI
Method: Cells were the stained on ice for 45 minutes with increasing concentration of either the 37-mer Cad-11 peptide or Cad-7, Cad-8, Cad-9, Cad-18, Cad-20, or Cad-24 peptides with […] SDP051. After staining the cells were washed twice with Hanks balanced salt solution (HBSS) containing 1% fetal bovine solution (FBS), resuspended and then stained with a 100 μl of goat anti-mouse IgG-PE (100× dilution) on ice for 30′ protected from light. After staining the cells with the secondary agent, cells were washed twice with HBSS with 1% FBS, resuspended and fixed in 200 μl of 2% formaldehyde in HBSS with 1% FBS and then analyzed with a BD FACSCALIBUR™ machine.

Row | binding result | Binder
26 | no binding (tested: about 80000 ng/ml) | B15
27 | no binding (tested: 3000 ng/ml) | B16
